Experiment: soluble on expression in E. coli; label from the status in PepcDB or PDB records

| Sequence | soluble on expression in E. coli |
| --- | --- |
| MGSDKIHHHHHHMPQISVTILRGADTIGGSCVKINHGEDSIVLDYGAPLMDSTGVSIDADLASSPSMENGILLDIQQQDTRPPLAYLLSHAHPDHYGLLRSLPKSSNIYLSDSSYSMMTIGNLFYPEALRFSSLEQCRQFTPGKPFQVGPFTVTAFLMDHSAFGACSLLIEVDGKQVYYTGDFRGHGRKSQVSDYIYANVKQPDLMLLEGTTLNGGHSLQFPTEVSVEDAMVSALNEGDGPAFVSASGSNIDRIVSLYNATKRTGKELVIDLYQLYLLEALKKYSPSLPPHKNDHLKVIFPQFQLAIIKSEFGDDFLRYSNRHVNLSKLKGTNYVFRLSPYAMTPYLDSFKEKGVKPKLIYSMWLGYQSKQPKFAEIANKYQESWQYIHTSGHAYLEHLQSFAGNISPKVLVPIHTLNRDKFSSYFDNVRIVENGESIVCE | not soluble |
| MGSDKIHHHHHHMEKTAIRIPIFMYSLLTPAWEHKIEAQTDGDPFGDSQPMKEYYGPNGKWLLDGVLRHLNISREDEIAILTTSDERYVSTCVSITCFNYAKISRVVGPNTKVVIVIHEFGYVYPDIKNYVCNLKERGIVVIEDCAHIIGCDINGKKIGSFGDYALFSLPKISPARAGGLLRTTKNIKLPVLNSNLSQLTNIGIAGAEKYLPKYKFFNKGRIERAELLKSQVNDLCNIFEPSHPAVPYFLGIVTSEKSKIETSLPWIEFGATLRNDLVYIPTNPLASINLFELITNTIKNGGKICN | not soluble |
| GVTGVTTGFTDLDKKTAGLQPSDLIIVAARPSMGKTTFAMNLCENAAMASEKPVLVFSLEMPAEQIMMRMIASLARVDQTKIRTGQNLDEIEWNKIASVVGMFKQKNNLFIDDSSGLTPTDVRSRARRVYRENGGLSMIMVDYLQLMRAPAFSDNRTLEIAEISRSLKALAKELQVPVVALSQLNRTLEQRGDKRPVNSDL | not soluble |
| MDWSEERTATLKKLWLEGLSASQVARQLGGVSRSAVIGKVHRLGITVRETPVRQRATTARAPSRISVRQRPSRDVATPRVAPRYERIEEDLLPTSGILGLGAHSCRWPIGHPENDDFGFCGRPKASARGSYCEQHSQGAFRRLSGGQALEAWALKGVKEKRIQPRLVLEHHHHHH | not soluble |
| MQIPHGELRTLTYHSNALKSERQMYVWTPPGYSESSKPLPVLYFYHGFGDTGASAVVQGRIPQMMDNLLAEKKIEPMLVVIPDTETDVPGIIPEEYPPQERRKVFYPRNALAADRELIHDIIPAIGKRFNVRQDANGRALAGLSQGGYQALVSGMSHLDHFGWLATFSGVTTETVPNMAVAAQLERPEQINQQLKNLTVVIGETDNITGKDIAGLKTMLEQKNIRFDYTHYPNLGHEMDVWRPAYSEFVQKLFKLEHHHHHH | not soluble |
| MGHHHHHHSHMDDAAVLKRRGYLLGINLGEGSYAKVKSAYSERLKFNVAIKIIDRKKAPADFLEKFLPREIEILAMLNHCSIIKTYEIFETSHGKVYIVMELAVQGDLLELIKTRGALHEDEARKKFHQLSLAIKYCHDLDVVHRDLKCDNLLLDKDFNIKLSDFSFSKRCLRDDSGRMALSKTFCGSPAYAAPEVLQGIPYQPKVYDIWSLGVILYIMVCGSMPYDDSNIKKMLRIQKEHRVNFPRSKHLTGECKDLIYHMLQPDVNRRLHIDEILSHCWMQPKARGSPSVA | not soluble |
| MGSDKIHHHHHHMAWTSAQGATAAMTVVDGVTGLPIAGATVVSAGAERVTANDGTFMMPMDGPDGGIAMTVRAPGYARLETVANGTTPRAIALAPLLAEEAARMGFDEVQFDYLRFPDAPGLRFSETNTSARRVAAITGFLSAARDRLRHYNIYLSADIFGYVCWNLDDTAIGQQLETLVVLSTTFHRCCIRPVSPSGWRRSGATSHPSRRGLP | not soluble |
| MSTPSVHCLKPSPLHLPSGIPGSPGRQRRHTLPANEFRCLTPEDAAGVFEIEREAFISVSGNCPLNLDEVQHFLTLCPELSLGWFVEGRLVAFIIGSLWDEERLTQESLALHRPRGHSAHLHALAVHRSFRQQGKGSVLLWRYLHHVGAQPAVRRAVLMCEDALVPFYQRFGFHPAGPCAIVVGSLTFTEMHCSLRGHAALRRNSDR | soluble |
| MGSDKIHHHHHHATKTEQIPVNKTYAACPQNWIGVENKCFYFSEYPSNWTFAQAFCMAQEAQLARFDNQDELNFLMRYKANFDSWIGLHRESSEHPWKWTDNTEYNNTIPIRGEERFAYLNNNGISSTRIYSLRMWICSKL | not soluble |
| MGSDKIHHHHHHMAGGSFMDDLRRGAGDLSVRASVREQDLNTYIMKVSCPARSGIVAAVSGYLARSGCNINDSSQFTDQETARFFMRLSFISEQGSGREALLDGFGSVAADFDMDYDIHDLSQKKKIVIMVSRFGHCLNDLLYRSRIGALPVEIVAVISNHLDYQKQVVNEDIPFHHIRVTPETKPEAEGAILQVVRDTGAELVVLARYMQVLSDQLCQEMSGRIINIHHSFLPSFKGANPYKQAYERGVRLIGATAHYVTADLDEGPIIEQDTIRVTHAQSGMDYVSLGRDVESQVLARAIHAHIHQRVFLNGNKTVVFPASPGEHVSERMG | not soluble |
| MMKTNTKKAKYDDAELFEKVLVGMSWLESHLREIIQTMVTDADVSFEQFLILYYLDHSTDHRITVKELAADRHVSSSAISRKLTYLINNDLIVLNIDPYDRRYRYLTLTAKGEKLARVIEKVNEERLGKFLDEFGRIRTSELTDELRMVSKVLVDTKEIKG | not soluble |
| MSLYRVFEALDELSAIVEEARGVPMTAGCVVPRGDVLELIDDIKDAIPGELDDAQDVLDARDSMLQDAKTHADSMVSSATTEAESILNHARTEADRILSDAKAQADRMVSEARQHSERMVADAREEAIRIATAAKREYEASVSRAQAECDRLIENGNISYEKAVQEGIKEQQRLVSQNEVVAAANAESTRLVDTAHAEADRLRGECDIYVDNKLAEFEEFLNGTLRSVGRGRHQLRTAAGTHDYAVREGHHHHHH | soluble |
| GPLGSSMEDHDDHLRRKFMEFPYVSPTRKQLMVDLMSTVENRLQSQLLPCNLPPDVRNFNNPNGSAEASLHIRSGDKSSPIDFVIGSWIHCKIPTGVSLNITSISGFLNSSTKAPNFVVELIQSSSKSLVLILDLPHRKDLVLNPDYLKEYYQDTALDSHRQSLLKLPEVNPYVSPSLFVRSAFSPTASMLKIDAEEEDKLEEILRDHVSPAAKEVLEVWLERCVKEEEEKIVVGEEERMELERRDKSFRRKSIEDDLDLQFPRMFGEEVSSRVVHAIKEAFGVL | soluble |
| MAHHHHHHMGGAIYNAVNIAEIVKRRIAGLHQITELGSELVRDEYEPIDRTQNPENVVVERKVSTILITLSRNCLDKSNPGYQEPIADSEVTEQERRDPNMSRRGGRGGIRGGRGGSRGGRGGSRGGRGGSRGGRGVAAIDRRDDREN | not soluble |
| MPVTEVGSLPELNNILERSDANRLIIIDFFANWCGPCRMISPIFEQFSAEYGNATFLKVNCDVARDIVQRYNISAMPTFIFLKNRQQVDMVRGANQQAIAEKIRQHYSPTPANPNAASDSEKRFLEQFVKCSNVPRSYQDEVFKALARSVMPEELVGRAMTEGPRDEKAILKDLLHWFKTQFFTWFDRPTCPKCTLKCSTDGLQGTPTREEQKEGGASRVEVYICDGCNTEMRFPRYNNPAKLLQTRTGRCGEWANCFGLLLAALNLESRFIYDTTDHVWNEVYLLAEQRWCHVDPCENTMDRPLLYTRGWGKTLGYCIGYGSDHVVDVTWRYIWDSKKLVTQRNEVRQPVFENFLSKLNSRQAEGQTEPRKRELAVRRVCELMEMMAQEAKNHKIGWEKIGDDLGGRITGSEEWRRERGELGESGPKLLAEPIKLAPPTGPAQNYLEFNYDVITDTYSQPPEIGFSAQAFELENVQRVEETDWNMTYLCRKRGDAPGNISWHFDLKSLKKSIEKIEIRMAGIQKFEKGKAMAIACLGDSCMRLPIDCSALTIEDPKNAEILKITATLSGGEGAIGFQQAQIFRTELKRGGGARTESFSVKIWMKN | not soluble |

Source: the DeepSol protein solubility set
